Laboratory results taken from PMC5575113 (2017).

Key:
GroEL = GroEL (E. coli, UniProt P0A6F5 1-548); test: MST
[1] = target: GroEL^SR (GroEL R452A/E461A/S463A/V464A) (E. coli, UniProt P0A6F5 1-548, R452A | E461A | S463A | V464A); test: MST

Row | Binder | Kd (GroEL) [nM] | Kd [1] [nM]
1 | GroES^7I25D_(1,4,7) (other, DyLight 650 NHS ester on amines (for MST)) MNIRPLHDRVIVKRKEVETKSAGGDVLTGSAAAKSTRGEVLAVGNGRILENGEVKPLDVKVGDIVIFNDGYGVKSEKIDNEEVLIMSESDILAIVEAMNIRPLHDRVIVKRKEVETKSAGGIVLTGSAAAKSTRGEVLAVGNGRILENGEVKPLDVKVGDIVIFNDGYGVKSEKIDNEEVLIMSESDILAIVEAMNIRPLHDRVIVKRKEVETKSAGGIVLTGSAAAKSTRGEVLAVGNGRILENGEVKPLDVKVGDIVIFNDGYGVKSEKIDNEEVLIMSESDILAIVEAMNIRPLHDRVIVKRKEVETKSAGGDVLTGSAAAKSTRGEVLAVGNGRILENGEVKPLDVKVGDIVIFNDGYGVKSEKIDNEEVLIMSESDILAIVEAMNIRPLHDRVIVKRKEVETKSAGGIVLTGSAAAKSTRGEVLAVGNGRILENGEVKPLDVKVGDIVIFNDGYGVKSEKIDNEEVLIMSESDILAIVEAMNIRPLHDRVIVKRKEVETKSAGGIVLTGSAAAKSTRGEVLAVGNGRILENGEVKPLDVKVGDIVIFNDGYGVKSEKIDNEEVLIMSESDILAIVEAMNIRPLHDRVIVKRKEVETKSAGGDVLTGSAAAKSTRGEVLAVGNGRILENGEVKPLDVKVGDIVIFNDGYGVKSEKIDNEEVLIMSESDILAIVEA | 40 | –
2 | GroES^7I25A1 (other, DyLight 650 NHS ester on amines (for MST)) MNIRPLHDRVIVKRKEVETKSAGGAVLTGSAAAKSTRGEVLAVGNGRILENGEVKPLDVKVGDIVIFNDGYGVKSEKIDNEEVLIMSESDILAIVEAMNIRPLHDRVIVKRKEVETKSAGGIVLTGSAAAKSTRGEVLAVGNGRILENGEVKPLDVKVGDIVIFNDGYGVKSEKIDNEEVLIMSESDILAIVEAMNIRPLHDRVIVKRKEVETKSAGGIVLTGSAAAKSTRGEVLAVGNGRILENGEVKPLDVKVGDIVIFNDGYGVKSEKIDNEEVLIMSESDILAIVEAMNIRPLHDRVIVKRKEVETKSAGGIVLTGSAAAKSTRGEVLAVGNGRILENGEVKPLDVKVGDIVIFNDGYGVKSEKIDNEEVLIMSESDILAIVEAMNIRPLHDRVIVKRKEVETKSAGGIVLTGSAAAKSTRGEVLAVGNGRILENGEVKPLDVKVGDIVIFNDGYGVKSEKIDNEEVLIMSESDILAIVEAMNIRPLHDRVIVKRKEVETKSAGGIVLTGSAAAKSTRGEVLAVGNGRILENGEVKPLDVKVGDIVIFNDGYGVKSEKIDNEEVLIMSESDILAIVEAMNIRPLHDRVIVKRKEVETKSAGGIVLTGSAAAKSTRGEVLAVGNGRILENGEVKPLDVKVGDIVIFNDGYGVKSEKIDNEEVLIMSESDILAIVEA | 4.6 | –
3 | GroES^7I25D1 (other, DyLight 650 NHS ester on amines (for MST)) MNIRPLHDRVIVKRKEVETKSAGGDVLTGSAAAKSTRGEVLAVGNGRILENGEVKPLDVKVGDIVIFNDGYGVKSEKIDNEEVLIMSESDILAIVEAMNIRPLHDRVIVKRKEVETKSAGGIVLTGSAAAKSTRGEVLAVGNGRILENGEVKPLDVKVGDIVIFNDGYGVKSEKIDNEEVLIMSESDILAIVEAMNIRPLHDRVIVKRKEVETKSAGGIVLTGSAAAKSTRGEVLAVGNGRILENGEVKPLDVKVGDIVIFNDGYGVKSEKIDNEEVLIMSESDILAIVEAMNIRPLHDRVIVKRKEVETKSAGGIVLTGSAAAKSTRGEVLAVGNGRILENGEVKPLDVKVGDIVIFNDGYGVKSEKIDNEEVLIMSESDILAIVEAMNIRPLHDRVIVKRKEVETKSAGGIVLTGSAAAKSTRGEVLAVGNGRILENGEVKPLDVKVGDIVIFNDGYGVKSEKIDNEEVLIMSESDILAIVEAMNIRPLHDRVIVKRKEVETKSAGGIVLTGSAAAKSTRGEVLAVGNGRILENGEVKPLDVKVGDIVIFNDGYGVKSEKIDNEEVLIMSESDILAIVEAMNIRPLHDRVIVKRKEVETKSAGGIVLTGSAAAKSTRGEVLAVGNGRILENGEVKPLDVKVGDIVIFNDGYGVKSEKIDNEEVLIMSESDILAIVEA | 4.07 | 25.6
4 | GroES^7I25A_(1,4,7) (other, DyLight 650 NHS ester on amines (for MST)) MNIRPLHDRVIVKRKEVETKSAGGAVLTGSAAAKSTRGEVLAVGNGRILENGEVKPLDVKVGDIVIFNDGYGVKSEKIDNEEVLIMSESDILAIVEAMNIRPLHDRVIVKRKEVETKSAGGIVLTGSAAAKSTRGEVLAVGNGRILENGEVKPLDVKVGDIVIFNDGYGVKSEKIDNEEVLIMSESDILAIVEAMNIRPLHDRVIVKRKEVETKSAGGIVLTGSAAAKSTRGEVLAVGNGRILENGEVKPLDVKVGDIVIFNDGYGVKSEKIDNEEVLIMSESDILAIVEAMNIRPLHDRVIVKRKEVETKSAGGAVLTGSAAAKSTRGEVLAVGNGRILENGEVKPLDVKVGDIVIFNDGYGVKSEKIDNEEVLIMSESDILAIVEAMNIRPLHDRVIVKRKEVETKSAGGIVLTGSAAAKSTRGEVLAVGNGRILENGEVKPLDVKVGDIVIFNDGYGVKSEKIDNEEVLIMSESDILAIVEAMNIRPLHDRVIVKRKEVETKSAGGIVLTGSAAAKSTRGEVLAVGNGRILENGEVKPLDVKVGDIVIFNDGYGVKSEKIDNEEVLIMSESDILAIVEAMNIRPLHDRVIVKRKEVETKSAGGAVLTGSAAAKSTRGEVLAVGNGRILENGEVKPLDVKVGDIVIFNDGYGVKSEKIDNEEVLIMSESDILAIVEA | 77.2 | –
5 | GroES^7I25D1,4 (other, DyLight 650 NHS ester on amines (for MST)) MNIRPLHDRVIVKRKEVETKSAGGDVLTGSAAAKSTRGEVLAVGNGRILENGEVKPLDVKVGDIVIFNDGYGVKSEKIDNEEVLIMSESDILAIVEAMNIRPLHDRVIVKRKEVETKSAGGIVLTGSAAAKSTRGEVLAVGNGRILENGEVKPLDVKVGDIVIFNDGYGVKSEKIDNEEVLIMSESDILAIVEAMNIRPLHDRVIVKRKEVETKSAGGIVLTGSAAAKSTRGEVLAVGNGRILENGEVKPLDVKVGDIVIFNDGYGVKSEKIDNEEVLIMSESDILAIVEAMNIRPLHDRVIVKRKEVETKSAGGDVLTGSAAAKSTRGEVLAVGNGRILENGEVKPLDVKVGDIVIFNDGYGVKSEKIDNEEVLIMSESDILAIVEAMNIRPLHDRVIVKRKEVETKSAGGIVLTGSAAAKSTRGEVLAVGNGRILENGEVKPLDVKVGDIVIFNDGYGVKSEKIDNEEVLIMSESDILAIVEAMNIRPLHDRVIVKRKEVETKSAGGIVLTGSAAAKSTRGEVLAVGNGRILENGEVKPLDVKVGDIVIFNDGYGVKSEKIDNEEVLIMSESDILAIVEAMNIRPLHDRVIVKRKEVETKSAGGIVLTGSAAAKSTRGEVLAVGNGRILENGEVKPLDVKVGDIVIFNDGYGVKSEKIDNEEVLIMSESDILAIVEA | 9.58 | 73.1
6 | GroES^7I25A1,3 (other, DyLight 650 NHS ester on amines (for MST)) MNIRPLHDRVIVKRKEVETKSAGGAVLTGSAAAKSTRGEVLAVGNGRILENGEVKPLDVKVGDIVIFNDGYGVKSEKIDNEEVLIMSESDILAIVEAMNIRPLHDRVIVKRKEVETKSAGGIVLTGSAAAKSTRGEVLAVGNGRILENGEVKPLDVKVGDIVIFNDGYGVKSEKIDNEEVLIMSESDILAIVEAMNIRPLHDRVIVKRKEVETKSAGGAVLTGSAAAKSTRGEVLAVGNGRILENGEVKPLDVKVGDIVIFNDGYGVKSEKIDNEEVLIMSESDILAIVEAMNIRPLHDRVIVKRKEVETKSAGGIVLTGSAAAKSTRGEVLAVGNGRILENGEVKPLDVKVGDIVIFNDGYGVKSEKIDNEEVLIMSESDILAIVEAMNIRPLHDRVIVKRKEVETKSAGGIVLTGSAAAKSTRGEVLAVGNGRILENGEVKPLDVKVGDIVIFNDGYGVKSEKIDNEEVLIMSESDILAIVEAMNIRPLHDRVIVKRKEVETKSAGGIVLTGSAAAKSTRGEVLAVGNGRILENGEVKPLDVKVGDIVIFNDGYGVKSEKIDNEEVLIMSESDILAIVEAMNIRPLHDRVIVKRKEVETKSAGGIVLTGSAAAKSTRGEVLAVGNGRILENGEVKPLDVKVGDIVIFNDGYGVKSEKIDNEEVLIMSESDILAIVEA | 10 | 39.7
7 | GroES^7I25D1,3 (other, DyLight 650 NHS ester on amines (for MST)) MNIRPLHDRVIVKRKEVETKSAGGDVLTGSAAAKSTRGEVLAVGNGRILENGEVKPLDVKVGDIVIFNDGYGVKSEKIDNEEVLIMSESDILAIVEAMNIRPLHDRVIVKRKEVETKSAGGIVLTGSAAAKSTRGEVLAVGNGRILENGEVKPLDVKVGDIVIFNDGYGVKSEKIDNEEVLIMSESDILAIVEAMNIRPLHDRVIVKRKEVETKSAGGDVLTGSAAAKSTRGEVLAVGNGRILENGEVKPLDVKVGDIVIFNDGYGVKSEKIDNEEVLIMSESDILAIVEAMNIRPLHDRVIVKRKEVETKSAGGIVLTGSAAAKSTRGEVLAVGNGRILENGEVKPLDVKVGDIVIFNDGYGVKSEKIDNEEVLIMSESDILAIVEAMNIRPLHDRVIVKRKEVETKSAGGIVLTGSAAAKSTRGEVLAVGNGRILENGEVKPLDVKVGDIVIFNDGYGVKSEKIDNEEVLIMSESDILAIVEAMNIRPLHDRVIVKRKEVETKSAGGIVLTGSAAAKSTRGEVLAVGNGRILENGEVKPLDVKVGDIVIFNDGYGVKSEKIDNEEVLIMSESDILAIVEAMNIRPLHDRVIVKRKEVETKSAGGIVLTGSAAAKSTRGEVLAVGNGRILENGEVKPLDVKVGDIVIFNDGYGVKSEKIDNEEVLIMSESDILAIVEA | 13.3 | 71.9
8 | GroES^7I25A1,2 (other, DyLight 650 NHS ester on amines (for MST)) MNIRPLHDRVIVKRKEVETKSAGGAVLTGSAAAKSTRGEVLAVGNGRILENGEVKPLDVKVGDIVIFNDGYGVKSEKIDNEEVLIMSESDILAIVEAMNIRPLHDRVIVKRKEVETKSAGGAVLTGSAAAKSTRGEVLAVGNGRILENGEVKPLDVKVGDIVIFNDGYGVKSEKIDNEEVLIMSESDILAIVEAMNIRPLHDRVIVKRKEVETKSAGGIVLTGSAAAKSTRGEVLAVGNGRILENGEVKPLDVKVGDIVIFNDGYGVKSEKIDNEEVLIMSESDILAIVEAMNIRPLHDRVIVKRKEVETKSAGGIVLTGSAAAKSTRGEVLAVGNGRILENGEVKPLDVKVGDIVIFNDGYGVKSEKIDNEEVLIMSESDILAIVEAMNIRPLHDRVIVKRKEVETKSAGGIVLTGSAAAKSTRGEVLAVGNGRILENGEVKPLDVKVGDIVIFNDGYGVKSEKIDNEEVLIMSESDILAIVEAMNIRPLHDRVIVKRKEVETKSAGGIVLTGSAAAKSTRGEVLAVGNGRILENGEVKPLDVKVGDIVIFNDGYGVKSEKIDNEEVLIMSESDILAIVEAMNIRPLHDRVIVKRKEVETKSAGGIVLTGSAAAKSTRGEVLAVGNGRILENGEVKPLDVKVGDIVIFNDGYGVKSEKIDNEEVLIMSESDILAIVEA | 8.97 | 35
